The target in assay [1] is mouse CD40 (mCD40) on transfected CHO cells (mouse) (UniProt P27512). Put plainly: flow cytometry, CHO-mCD40 cells, negative control, anti-mIgG Fc-FITC; x: Anti-mouse-IgG-Fc-FITC, y: SSC-H.
Assay [2] concerns the target monkey (rhesus macaque) CD40 (rmCD40) on transfected CHO cells (rhesus macaque). Briefly: flow cytometry, CHO-rmCD40 cells, negative control, anti-mIgG Fc-FITC; x: Anti-mouse-IgG-Fc-FITC, y: SSC-H. (In flow cytometry, cells or beads pass a laser one at a time.)
Assay [3] has as its target chimeric (mouse and human) CD40 (chiCD40) on transfected CHO cells (chimeric (mouse and human)). Put plainly: flow cytometry, CHO-chiCD40 cells, negative control, anti-mIgG Fc-FITC; x: Anti-mouse-IgG-Fc-FITC, y: SSC-H.

Experimental findings from patent US20250034271A1 are described below.

Chain of chimeric (mouse and human) CD40 (chiCD40) on transfected CHO cells (chimeric (mouse and human)) (chain, as listed by the source mutant limits assumed): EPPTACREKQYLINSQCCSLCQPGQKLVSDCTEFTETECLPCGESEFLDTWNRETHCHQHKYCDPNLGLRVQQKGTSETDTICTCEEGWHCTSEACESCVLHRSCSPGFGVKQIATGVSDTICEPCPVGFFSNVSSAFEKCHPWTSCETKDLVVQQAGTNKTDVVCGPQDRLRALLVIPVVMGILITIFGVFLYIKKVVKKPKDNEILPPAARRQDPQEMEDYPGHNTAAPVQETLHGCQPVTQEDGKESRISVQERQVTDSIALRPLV
Chain of mouse CD40 (mCD40) on transfected CHO cells (mouse) (P27512 20-289 limits assumed): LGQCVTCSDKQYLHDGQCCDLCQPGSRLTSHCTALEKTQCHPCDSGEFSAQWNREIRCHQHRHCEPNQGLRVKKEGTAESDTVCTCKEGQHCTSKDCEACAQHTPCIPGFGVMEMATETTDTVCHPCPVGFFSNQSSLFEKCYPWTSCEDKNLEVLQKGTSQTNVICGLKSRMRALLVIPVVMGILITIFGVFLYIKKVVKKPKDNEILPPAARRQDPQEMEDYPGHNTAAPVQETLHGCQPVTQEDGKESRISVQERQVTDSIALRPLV
Chain of monkey (rhesus macaque) CD40 (rmCD40) on transfected CHO cells (rhesus macaque) (P25942 other isoform, or with tags, fused parts or gaps limits assumed): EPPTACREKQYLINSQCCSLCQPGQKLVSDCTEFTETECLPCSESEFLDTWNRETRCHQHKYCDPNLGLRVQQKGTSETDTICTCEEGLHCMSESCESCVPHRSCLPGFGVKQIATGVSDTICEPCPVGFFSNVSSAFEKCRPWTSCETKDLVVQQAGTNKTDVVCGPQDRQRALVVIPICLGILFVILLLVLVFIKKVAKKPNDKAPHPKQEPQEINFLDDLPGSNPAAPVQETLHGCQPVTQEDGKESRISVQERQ

For NC, the % cells in the Anti-mouse-IgG-Fc-FITC positive gate in assay [1] was found to be 1.01%; in assay [2] it was 1.19%; in assay [3] it was 1.19%.
